By EC50 (read off the curve) is commonly meant the concentration at which the effect is half-maximal. Low values mean greater potency, high ones weaker potency. By EC50 is commonly meant the concentration giving half of the maximal effect.

In assay [1] the target is T1, heat-induced aggregates of ApoE4 (human, UniProt P02649 19-317).
T1 construct: mature; aggregated state of the recombinant protein; also called ApoE4 incubated at 40 C for 24 hr; heat-treated ApoE4
As to the kind of experiment: ELISA: ApoE4 incubated at 40 C for 24 hr on the plate, antibody titrated, OD650. Here is the method: (§1) 1: untreated ApoE4. 2: ApoE4 that has been incubated at 40° C. for 24 hr. Supernatant(S) and pellet (P) from ultracentrifugation were resolved on SDS-PAGE and stained by Coomassie blue. (D) Binding of HJ156 to different preparations of ApoE4 loaded at the same concentration on the ELISA plate. Sup of untreated: Supernatant fraction of untreated ApoE4 from ultracentrifugation. Sup/Pel of 24h 40C: Supernatant/pellet fraction of ApoE4 incubated at 40° C. for 24 hour. (E) Binding of HJ156 to untreated and 40° C. incubated ApoE4 with and without denaturation by 1% SDS or 4M guanidine HCl.
(§2) In order to test whether HJ151 and HJ156 bind to some form of ApoE in the brain, unfixed frozen brain sections from APPPS1/APOE4 or APPPS1/EKO mice using HJ151 and HJ156 (FIG. 38A). The presence of Aβ plaques was confirmed with Aβ immunostaining using anti-Aβ antibody HJ3.4 on the sections from the same brain. […] Next, the ability of HJ156 to bind to an aggregated form of ApoE induced by incubation at 40° C. was queried. The binding of untreated ApoE to HJ151, HJ153 or HJ156 was compared to the binding of ApoE incubated at 40° C. to HJ151, HJ153 or HJ156. HJ153 bound to untreated ApoE or ApoE incubated at 40° C. similarly while HJ151 and HJ156 preferentially bound to ApoE incubated at 40° C. (FIG. 38B). […] Solubilization of the ApoE aggregates reduced their binding to HJ156. […]
On the technique in general: In an ELISA, binding on a coated surface is turned into a signal by an enzyme label.

The target in assay [2] is T1, heat-induced aggregates of ApoE4. As to the kind of experiment: ELISA: ApoE4 incubated at 40 C for 24 h, no denaturant, on the plate, HJ156 titrated, OD650. How it is done: as §1, §2
Target sequence in this assay (P02649 19-317 C130R): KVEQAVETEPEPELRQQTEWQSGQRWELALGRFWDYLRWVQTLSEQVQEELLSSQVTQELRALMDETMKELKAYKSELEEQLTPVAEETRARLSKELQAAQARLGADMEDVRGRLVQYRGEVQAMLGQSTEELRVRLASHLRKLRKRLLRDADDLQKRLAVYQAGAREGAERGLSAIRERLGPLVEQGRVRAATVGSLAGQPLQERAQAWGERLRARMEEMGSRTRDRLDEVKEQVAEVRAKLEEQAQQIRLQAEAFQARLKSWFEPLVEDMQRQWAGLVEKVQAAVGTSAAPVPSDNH
Assay [3] concerns the target T2, recombinant alipidated human ApoE2 (human, UniProt P02649 19-317).
T2 construct: mature; full length recombinant protein made in E. coli or bought
As to the kind of experiment: direct ELISA on coated recombinant alipidated ApoE (0.5 ug/ml). The procedure, abridged: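 Antibody dose-response curves were built by HRP-conjugated goat anti-mouse IgG detection of anti-ApoE antibodies bound to blocked plates. The coat was full-length alipidated recombinant ApoE at 0.5 μg/ml, applied overnight, either E. coli-expressed and purified or commercially sourced.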

T2 sequence (P02649 19-317 R176C): as the sequence (P02649 19-317 C130R) above, with R112C, R158C counted along it

B1: HJ151 (antibody, V domains shown)
VH: QVQLQQSGAELVRPGASVTLSCKASGYTFTDYEMHWVKQTPVHGLEWIGVIDPEKGGTAYNQKFKGKAILTADKSSSTAYMDLRSLTSEDSAVYYCLKDSWGQGTTLTVSS
VL: DVLMTQTPLSLPVSLGDQASISCRSSQTIVHSDGNTYLEWYLQKPGQSPKLLIYKVSNRFSGVPDRFSGSGSGTYFTLKISRVEAEDLGVYYCFQGSHVPCTFGGGTKLEIKR
notes: murine monoclonal antibody from hybridoma; also called HJ151B (biotinylated)
As to B1, the “EC50 (read off the curve)” value in assay [1] is about 0.2 nM.

B2: HJ156 (antibody, V domains shown)
VH: QVQLQQSGPELVKPGASVKISCKASGYIFTDYYINWVKRRPGQGLEWIGWIFPGSGVSYYNEQFKGKATLTVDKPSNTAYIFLSRLTSEDSAVYFCARYYSSSPFAYWGQGTLVTVSA
VL: DVLMTQTPLSLPVSLGDQASISCRSSQNIIHSNGNTYLEWFLQRPGQSPELLIYKVSNRFSGVPDRFSGSGSGTDFTLKISRVEAEDLGVYYCFQGSHVPYTFGGGTKLEIKR
notes: murine monoclonal antibody from hybridoma; also called HJ156B (biotinylated)
B2: the “EC50 (read off the curve)” value in assay [2] was about 0.1 nM.

B3: HJ154 (antibody, V domains shown)
VH: QVQLQQPGTEFVMSGASVMLSCKASGYIFTNYWLHWVKQRPGHGLEWIGEIDPSDSYSICNDNFKGKSTLTVDKSSSTAYMQLSSLTSEDSAVYYCAGSLGRVGLAYWGQGTLVTVST
VL: QIVLTQSPAIMSASPGEKVTMSCSASSSVSNMYWYQQKPGSSPKSWIYRTSNLASGVPARFSGSGSGTSYSLTISNMEAEDAATYYCQHYQNYPLTFGAGTKLELKR
notes: murine monoclonal antibody from hybridoma; also called HJ154B (biotinylated)
On to B3, for which the EC50 in assay [3] came to 0.25 nM.
